From patent US20250281573A1 (GENEROATH, published 2025) come the findings set out here.

This experiment addresses T1, TRAF2 (UniProt Q12933 1-501, limits assumed).
T1 sequence (looked up): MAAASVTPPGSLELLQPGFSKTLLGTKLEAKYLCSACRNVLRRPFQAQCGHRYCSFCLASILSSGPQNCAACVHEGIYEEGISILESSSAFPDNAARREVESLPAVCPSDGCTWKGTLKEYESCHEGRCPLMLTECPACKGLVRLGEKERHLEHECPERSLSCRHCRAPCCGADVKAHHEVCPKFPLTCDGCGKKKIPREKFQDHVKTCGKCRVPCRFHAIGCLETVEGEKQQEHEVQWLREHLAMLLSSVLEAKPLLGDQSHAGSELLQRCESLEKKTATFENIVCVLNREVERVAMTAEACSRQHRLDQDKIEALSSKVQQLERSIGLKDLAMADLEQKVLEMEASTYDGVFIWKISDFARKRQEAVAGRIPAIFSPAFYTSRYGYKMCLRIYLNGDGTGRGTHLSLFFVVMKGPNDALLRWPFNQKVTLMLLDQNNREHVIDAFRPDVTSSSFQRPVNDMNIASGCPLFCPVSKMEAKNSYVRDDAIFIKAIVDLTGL
The experiment is described as follows: TRAF2 immunoprecipitation from transfected HEK293 cells, anti-Myc immunoblot (FIG. 9A). The method, then:
To understand how DX2 compromises the apoptotic activity of TNF-a signaling, we evaluated the ability of DX2 to compete with AIMP2 for the interaction with TRAF2 and to affect NF-kB-dependent transcriptional activity. For the co-immunoprecipitation assay, HEK293 cells were transfected with 0, 1 or 2 μg of Myc-tagged DX2 or AIMP2 expression plasmid (FIG. 9A). The expression of endogenous (Endo) and exogenous (Exo) AIMP2 and DX2 was confirmed by immunoblotting of whole cell lysates (WCL) with anti-AIMP2 antibody. TRAF2 was immunoprecipitated with its specific antibody and AIMP2 or DX2 bound to TRAF2 were detected with anti-Myc antibody.
Background: A western blot detects proteins with antibodies after separation by electrophoresis.

B1: Myc-tagged DX2 (other)
chain: MPMYQVKPYHGGGAPLRVELPTCMYRLPNVHGRSYGPAPGAGHVQDYGALKDIVINANPASPPLSLLVLHRLLCEHFRVLSTVHTHSSVKSVPENLLKCFGEQNKKQPRQDYQLGFTLIWKNVPKTQMKFSIQTMCPIEGEGNIARFLFSLFGQKHNAVNATLIDSWVDIAIFQLKEGSSKEKAAVFRSMNSALGKSPWLAGNELTVADVVLWSVLQQIGGCSVTVPANVQRWMRSCENLAPFNTALKLLK
notes: also called Myc-DX2; not shown: Myc tag
Turning to B1, the binding result is “binds”.
